Measured values from patent US20200262877A1, “ION CHANNEL-BINDING PEPTIDES AND METHODS OF USE THEREOF” (priority 2017, published 2020).

What was measured:
TRPA1 = biological target: T1, TRPA1 (Homo sapiens, UniProt O75762); assay: Ion channel panel (IonWorks Barracuda): TRPA1; assay type: cell-based; conditions: 100% = no change, <100% = inhibition
T1 construct: host or cells: HEK293 or CHO
Protocol: (§1) This example describes a method for assaying ion channel activity in cells.
(§2) Peptides were screened in duplicate at final concentrations of 20 μM and 200 nM, as determined by amino acid analysis, and diluted into HEPES buffered physiological saline (HBPS). HEK293 or CHO cells from the American Type Culture Collection (ATCC) were transfected with the appropriate ion channel before use. HEK293 cells were grown in Dulbecco's Modified Eagle Medium/Nutrient Mixture F-12, and CHO cells were cultured in Ham's F-12 media. All cultures were supplemented with 10% fetal bovine serum, 100 U/ml penicillin G, 100 μg/ml streptomycin sulfate, and the appropriate selection antibiotics. Prior to use, cells were washed twice with Hank's Balanced Salt Solution, and treated with Accutase cell detachment solution (Sigma-Aldrich). Cells were then washed. Peptides and controls were incubated with cells for at least five minutes.
(§3) Percent inhibition was defined as: (1-(Ipeptide/Icontrol))×100%).
(§4) Percent values were calculated using the following formula: % activation=(IPeptide/Icontrol)×100%, where IPeptide is the current produced by co-application a peptide with agonist, and Icontrol refers to the current produced by stimulation in control. Control used for each ion channel is the reference compound matched to a particular channel, as illustrated in TABLE 10 below.

Nav1.7 = biological target: T2, Nav1.7 (Homo sapiens, UniProt Q15858); assay: cell-based; assay type: cell-based; conditions: 100% = no change; for Activity of Nav1.7 with peptide, expressed as a percentage of the reference compound: peptide at 0.2 μM; for Activity of Nav1.7 with peptide (percentage of the reference compound): peptide at 20 μM
T2 construct: host or cells: HEK293 or CHO
T2 sequence (Q15858 whole entry): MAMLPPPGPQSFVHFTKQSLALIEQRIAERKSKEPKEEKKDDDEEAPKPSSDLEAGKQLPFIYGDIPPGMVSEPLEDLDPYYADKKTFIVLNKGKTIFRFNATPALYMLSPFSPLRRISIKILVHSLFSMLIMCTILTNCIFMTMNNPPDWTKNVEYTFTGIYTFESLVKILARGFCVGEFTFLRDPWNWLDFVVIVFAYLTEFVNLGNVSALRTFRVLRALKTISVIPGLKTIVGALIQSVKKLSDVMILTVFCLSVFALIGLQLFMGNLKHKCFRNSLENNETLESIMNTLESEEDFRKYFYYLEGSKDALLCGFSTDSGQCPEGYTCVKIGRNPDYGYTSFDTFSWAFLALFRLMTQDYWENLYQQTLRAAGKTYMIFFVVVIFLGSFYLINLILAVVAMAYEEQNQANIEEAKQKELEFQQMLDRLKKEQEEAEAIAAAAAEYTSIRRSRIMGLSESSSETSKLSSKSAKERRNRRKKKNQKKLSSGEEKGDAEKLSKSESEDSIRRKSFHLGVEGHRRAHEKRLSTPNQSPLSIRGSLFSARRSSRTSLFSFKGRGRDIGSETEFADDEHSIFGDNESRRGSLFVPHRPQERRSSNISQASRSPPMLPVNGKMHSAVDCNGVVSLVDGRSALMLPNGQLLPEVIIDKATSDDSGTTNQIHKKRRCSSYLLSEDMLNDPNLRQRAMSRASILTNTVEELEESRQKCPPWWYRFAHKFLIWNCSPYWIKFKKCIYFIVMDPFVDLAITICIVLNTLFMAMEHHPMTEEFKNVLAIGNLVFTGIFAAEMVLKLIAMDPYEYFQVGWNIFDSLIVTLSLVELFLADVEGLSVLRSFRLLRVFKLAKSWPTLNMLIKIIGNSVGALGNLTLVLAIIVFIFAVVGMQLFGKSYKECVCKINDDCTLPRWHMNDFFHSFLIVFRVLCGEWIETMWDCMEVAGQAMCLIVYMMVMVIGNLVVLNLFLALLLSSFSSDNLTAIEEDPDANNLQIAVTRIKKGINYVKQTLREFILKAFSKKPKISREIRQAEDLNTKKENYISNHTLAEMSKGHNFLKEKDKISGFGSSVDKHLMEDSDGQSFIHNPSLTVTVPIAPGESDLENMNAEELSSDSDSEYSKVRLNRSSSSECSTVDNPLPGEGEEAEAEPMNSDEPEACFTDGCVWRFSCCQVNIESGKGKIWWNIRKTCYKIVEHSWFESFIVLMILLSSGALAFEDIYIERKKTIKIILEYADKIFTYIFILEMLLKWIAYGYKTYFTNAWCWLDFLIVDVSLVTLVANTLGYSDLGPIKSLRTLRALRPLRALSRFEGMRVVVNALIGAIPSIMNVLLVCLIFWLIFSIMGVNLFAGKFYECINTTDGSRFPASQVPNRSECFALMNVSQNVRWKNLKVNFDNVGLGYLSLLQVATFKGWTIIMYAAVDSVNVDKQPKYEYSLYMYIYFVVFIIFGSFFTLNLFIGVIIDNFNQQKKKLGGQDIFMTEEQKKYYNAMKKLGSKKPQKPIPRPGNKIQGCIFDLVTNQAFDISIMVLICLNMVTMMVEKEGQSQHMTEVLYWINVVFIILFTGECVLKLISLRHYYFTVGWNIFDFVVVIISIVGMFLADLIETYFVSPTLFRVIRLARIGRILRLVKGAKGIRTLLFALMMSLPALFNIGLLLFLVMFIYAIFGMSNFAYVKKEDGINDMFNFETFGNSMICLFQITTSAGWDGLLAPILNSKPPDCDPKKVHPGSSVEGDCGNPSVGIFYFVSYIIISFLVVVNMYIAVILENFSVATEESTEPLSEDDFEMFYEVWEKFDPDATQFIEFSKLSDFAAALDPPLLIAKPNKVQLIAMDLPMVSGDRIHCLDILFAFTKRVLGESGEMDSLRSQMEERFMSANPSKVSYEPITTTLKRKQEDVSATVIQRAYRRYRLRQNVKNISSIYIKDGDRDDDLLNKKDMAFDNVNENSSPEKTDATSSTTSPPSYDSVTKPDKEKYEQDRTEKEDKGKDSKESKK
Protocol: as §1
as §2, with “Peptides were screened in duplicate at final concentrations of 20 μM and 200 nM, as determined by amino acid analysis, and diluted into HEPES buffered physiological saline (HBPS).” left out
as §3, §4

Kv2.1 = biological target: T3, Kv2.1 (Homo sapiens, UniProt Q14721); assay: cell-based; conditions: 100% = no change, <100% = inhibition
T3 construct: host or cells: HEK293 or CHO
Protocol: as §1, §2, §3, §4

Cav2.2 = biological target: T4, Cav2.2 (Homo sapiens, UniProt Q00975); assay: cell-based; conditions: 100% = no change, <100% = inhibition
T4 construct: host or cells: HEK293 or CHO
Protocol: as §1, §2, §3, §4

Cav2.1 = biological target: T5, Cav2.1 (Homo sapiens, UniProt O00555); assay: cell-based; conditions: 100% = no change, <100% = inhibition
T5 construct: host or cells: HEK293 or CHO
Protocol: as §1, §2, §3, §4

5HT3a = biological target: T6, 5HT3a (Homo sapiens, UniProt P46098); assay: Ion channel panel (IonWorks Barracuda): 5HT3a; assay type: cell-based
T6 construct: host or cells: HEK293 or CHO
T6 sequence (P46098 whole entry, looked up): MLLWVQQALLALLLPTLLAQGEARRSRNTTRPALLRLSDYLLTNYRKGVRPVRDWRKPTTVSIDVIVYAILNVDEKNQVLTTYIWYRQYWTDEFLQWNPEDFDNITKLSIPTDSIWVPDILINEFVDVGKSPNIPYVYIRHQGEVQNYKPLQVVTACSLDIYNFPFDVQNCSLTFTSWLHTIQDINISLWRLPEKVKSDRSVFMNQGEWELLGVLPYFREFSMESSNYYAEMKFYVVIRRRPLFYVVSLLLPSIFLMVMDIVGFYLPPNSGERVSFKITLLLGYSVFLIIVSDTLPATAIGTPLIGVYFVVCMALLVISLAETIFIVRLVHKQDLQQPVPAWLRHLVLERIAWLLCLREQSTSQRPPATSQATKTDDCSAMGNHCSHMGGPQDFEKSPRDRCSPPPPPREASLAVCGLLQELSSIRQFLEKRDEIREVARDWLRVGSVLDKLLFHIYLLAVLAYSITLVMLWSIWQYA
Protocol: as §1, §2, §3, §4

α3β4 = biological target: T7, α3β4 (Homo sapiens, UniProt P30926+P32297); assay: Ion channel panel (IonWorks Barracuda): α3β4; assay type: cell-based; conditions: 100% = no change, <100% = inhibition
T7 construct: host or cells: HEK293 or CHO
Protocol: as §1, §2, §3, §4

NR2B = biological target: T8, NR2B (Homo sapiens, UniProt Q13224); assay: Ion channel panel (IonWorks Barracuda): NR2B; assay type: cell-based; conditions: 100% = no change, <100% = inhibition
T8 construct: host or cells: HEK293 or CHO
Protocol: as §1, §2, §3, §4

Kv1.2 = biological target: T9, Kv1.2 (Homo sapiens, UniProt P16389); assay: cell-based; assay type: cell-based; conditions: 100% = no change, <100% = inhibition
T9 construct: host or cells: HEK293 or CHO
T9 sequence (P16389 whole entry): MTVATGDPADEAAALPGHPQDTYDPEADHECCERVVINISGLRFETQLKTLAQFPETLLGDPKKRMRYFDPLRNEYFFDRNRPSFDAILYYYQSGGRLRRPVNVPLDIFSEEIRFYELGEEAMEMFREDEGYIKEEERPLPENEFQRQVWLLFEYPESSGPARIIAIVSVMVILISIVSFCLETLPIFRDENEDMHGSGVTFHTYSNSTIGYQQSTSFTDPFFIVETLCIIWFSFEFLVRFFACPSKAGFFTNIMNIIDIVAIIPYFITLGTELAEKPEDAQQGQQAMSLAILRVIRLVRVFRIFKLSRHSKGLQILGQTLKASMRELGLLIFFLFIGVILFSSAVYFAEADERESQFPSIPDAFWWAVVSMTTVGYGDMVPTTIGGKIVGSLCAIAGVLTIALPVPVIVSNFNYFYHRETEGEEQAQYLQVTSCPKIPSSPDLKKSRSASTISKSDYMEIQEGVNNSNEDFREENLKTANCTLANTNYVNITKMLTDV
Protocol: as §1, §2, §3, §4

Kv1.3 = biological target: T10, Kv1.3 (Homo sapiens, UniProt P22001); assay: cell-based; assay type: cell-based; conditions: 100% = no change, <100% = inhibition
T10 construct: host or cells: HEK293 or CHO
T10 sequence (P22001 whole entry): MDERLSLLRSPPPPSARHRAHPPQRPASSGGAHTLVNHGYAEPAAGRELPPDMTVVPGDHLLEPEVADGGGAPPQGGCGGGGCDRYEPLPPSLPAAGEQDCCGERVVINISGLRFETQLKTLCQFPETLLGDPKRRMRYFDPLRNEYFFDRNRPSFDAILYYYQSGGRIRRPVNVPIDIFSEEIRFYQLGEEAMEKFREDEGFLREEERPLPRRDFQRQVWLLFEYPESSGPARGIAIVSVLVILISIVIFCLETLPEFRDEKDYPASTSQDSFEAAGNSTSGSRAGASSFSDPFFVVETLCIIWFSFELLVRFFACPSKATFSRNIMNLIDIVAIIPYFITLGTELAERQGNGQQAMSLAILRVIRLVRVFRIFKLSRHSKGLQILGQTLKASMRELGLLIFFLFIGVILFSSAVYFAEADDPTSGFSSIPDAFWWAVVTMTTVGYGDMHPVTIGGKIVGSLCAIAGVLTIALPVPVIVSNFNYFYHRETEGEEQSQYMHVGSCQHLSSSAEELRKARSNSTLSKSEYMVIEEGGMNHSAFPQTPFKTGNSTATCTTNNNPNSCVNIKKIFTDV
Protocol: as §1, §2, §3, §4

Kv1.1 = biological target: T11, Kv1.1 (Homo sapiens, UniProt Q09470); assay: cell-based; assay type: cell-based; conditions: 100% = no change, <100% = inhibition
T11 construct: host or cells: HEK293 or CHO
Protocol: as §1, §2, §3, §4

hERG = hERG (Homo sapiens, UniProt Q12809); assay: in vitro; conditions: 100% = no change, <100% = inhibition
Protocol: as §1, §2, §3, §4

Nav1.5 = Nav1.5 (Homo sapiens, UniProt Q14524); assay: in vitro; conditions: 100% = no change; for Activity of Nav1.5 with peptide, expressed as a percentage of the reference compound: peptide at 0.2 μM; for Activity of Nav1.5 with peptide (percentage of the reference compound): peptide at 20 μM
Chain of Nav1.5 (Q14524 whole entry): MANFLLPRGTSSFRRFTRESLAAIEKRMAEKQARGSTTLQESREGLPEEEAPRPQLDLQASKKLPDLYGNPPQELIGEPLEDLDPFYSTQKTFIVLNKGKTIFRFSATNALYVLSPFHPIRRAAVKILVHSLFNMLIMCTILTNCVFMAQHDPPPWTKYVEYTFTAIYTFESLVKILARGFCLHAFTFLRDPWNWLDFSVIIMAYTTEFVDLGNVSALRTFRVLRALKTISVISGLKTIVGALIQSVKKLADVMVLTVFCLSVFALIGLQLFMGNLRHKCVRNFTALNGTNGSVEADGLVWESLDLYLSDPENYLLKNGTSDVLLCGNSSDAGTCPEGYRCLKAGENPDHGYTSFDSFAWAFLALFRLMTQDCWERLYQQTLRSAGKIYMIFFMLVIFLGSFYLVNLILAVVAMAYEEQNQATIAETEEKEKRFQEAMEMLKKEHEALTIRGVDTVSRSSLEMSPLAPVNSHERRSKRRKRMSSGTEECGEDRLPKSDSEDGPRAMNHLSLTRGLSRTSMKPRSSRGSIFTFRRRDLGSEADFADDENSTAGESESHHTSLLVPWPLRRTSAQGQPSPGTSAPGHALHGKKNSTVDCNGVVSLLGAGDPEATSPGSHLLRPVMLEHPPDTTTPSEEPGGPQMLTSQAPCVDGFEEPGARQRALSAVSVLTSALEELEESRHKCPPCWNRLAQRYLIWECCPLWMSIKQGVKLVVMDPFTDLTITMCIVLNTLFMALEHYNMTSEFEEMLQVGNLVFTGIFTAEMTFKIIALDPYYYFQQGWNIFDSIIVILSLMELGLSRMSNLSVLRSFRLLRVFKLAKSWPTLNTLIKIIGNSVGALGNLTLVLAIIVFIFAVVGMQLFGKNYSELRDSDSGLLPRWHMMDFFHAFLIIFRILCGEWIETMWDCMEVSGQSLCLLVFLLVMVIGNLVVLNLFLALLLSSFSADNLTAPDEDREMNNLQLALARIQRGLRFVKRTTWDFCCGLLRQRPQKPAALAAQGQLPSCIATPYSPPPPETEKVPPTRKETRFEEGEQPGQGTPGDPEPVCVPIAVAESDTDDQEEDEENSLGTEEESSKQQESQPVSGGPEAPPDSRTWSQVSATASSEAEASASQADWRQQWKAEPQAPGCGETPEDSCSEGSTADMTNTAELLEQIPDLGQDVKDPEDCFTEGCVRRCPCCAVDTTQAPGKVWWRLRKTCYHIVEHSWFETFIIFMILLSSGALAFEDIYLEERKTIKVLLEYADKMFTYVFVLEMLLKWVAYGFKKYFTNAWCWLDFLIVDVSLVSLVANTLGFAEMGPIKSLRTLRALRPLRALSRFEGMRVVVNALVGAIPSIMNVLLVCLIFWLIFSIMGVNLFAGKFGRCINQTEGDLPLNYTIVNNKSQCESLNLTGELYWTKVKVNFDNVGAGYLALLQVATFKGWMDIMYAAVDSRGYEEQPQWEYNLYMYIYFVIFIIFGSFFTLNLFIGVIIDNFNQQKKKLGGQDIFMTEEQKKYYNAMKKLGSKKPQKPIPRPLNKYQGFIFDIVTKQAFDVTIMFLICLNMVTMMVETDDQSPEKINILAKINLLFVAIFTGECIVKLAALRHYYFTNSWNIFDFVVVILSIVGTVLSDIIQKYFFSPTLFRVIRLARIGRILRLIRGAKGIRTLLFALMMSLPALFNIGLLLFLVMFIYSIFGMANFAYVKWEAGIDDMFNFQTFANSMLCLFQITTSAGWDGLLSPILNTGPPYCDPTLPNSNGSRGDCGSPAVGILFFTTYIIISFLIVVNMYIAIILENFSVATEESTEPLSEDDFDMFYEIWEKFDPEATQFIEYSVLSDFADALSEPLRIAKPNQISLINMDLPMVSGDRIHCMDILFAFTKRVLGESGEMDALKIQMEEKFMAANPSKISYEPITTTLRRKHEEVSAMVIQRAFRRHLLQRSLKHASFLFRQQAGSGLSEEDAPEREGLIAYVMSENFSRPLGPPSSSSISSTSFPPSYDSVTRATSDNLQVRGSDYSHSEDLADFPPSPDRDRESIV
Protocol: as §1, §2, §3, §4

TRPV1 = biological target: T12, TRPV1 (Homo sapiens, UniProt Q8NER1); assay: Ion channel panel (IonWorks Barracuda): TRPV1; assay type: cell-based; conditions: 100% = no change, <100% = inhibition
T12 construct: host or cells: HEK293 or CHO
Protocol: as §1, §2, §3, §4

α4β2 = biological target: T13, α4β2 (Homo sapiens, UniProt P17787+P43681); assay: Ion channel panel (IonWorks Barracuda): α4β2; assay type: cell-based; conditions: 100% = no change, <100% = inhibition
T13 construct: host or cells: HEK293 or CHO
Protocol: as §1, §2, §3, §4

GABA = assay: Ion channel panel (IonWorks Barracuda): GABA; assay type: cell-based; conditions: 100% = no change, <100% = inhibition
Protocol: as §1, §2, §3, §4

Kir2.1 = biological target: T14, Kir2.1 (Homo sapiens, UniProt P63252); assay: Ion channel panel (IonWorks Barracuda): Kir2.1; assay type: cell-based; conditions: 100% = no change, <100% = inhibition
T14 construct: host or cells: HEK293 or CHO
Protocol: as §1, §2, §3, §4

NR2A = biological target: T15, NR2A (Homo sapiens, UniProt Q12879); assay: Ion channel panel (IonWorks Barracuda): NR2A; assay type: cell-based; conditions: 100% = no change, <100% = inhibition
T15 construct: host or cells: HEK293 or CHO
Protocol: as §1, §2, §3, §4

[1] = first of two Nav1.7 columns (probably TP1)
[2] = second of two Nav1.7 columns (probably TP2)
[3] = first of two Nav1.5 columns (probably TP1)
[4] = second of two Nav1.5 columns (probably TP2)

## 10 (GSQVQTNVKCQGGSCASVCRREIGVAAGKCINGKCVCYRN) [compound 10]
TRPA1; peptide at 0.2 μM
  Activity of TRPA1 with peptide, expressed as a percentage of the reference compound: 108%
TRPA1; peptide at 20 μM
  Activity of TRPA1 with peptide (percentage of the reference compound): 107%
Nav1.7; [1]
  Activity of Nav1.7 with peptide, expressed as a percentage of the reference compound: 105%
  Activity of Nav1.7 with peptide (percentage of the reference compound): 106%
Nav1.7; [2]
  Activity of Nav1.7 with peptide, expressed as a percentage of the reference compound: 98%
  Activity of Nav1.7 with peptide (percentage of the reference compound): 90%
Kv2.1; peptide at 0.2 μM
  Activity of Kv2.1 with peptide, expressed as a percentage of the reference compound: 88%
Kv2.1; peptide at 20 μM
  Activity of Kv2.1 with peptide (percentage of the reference compound): 109%
Cav2.2; peptide at 0.2 μM
  Activity of Cav2.2 with peptide, expressed as a percentage of the reference compound: 98%
Cav2.2; peptide at 20 μM
  Activity of Cav2.2 with peptide (percentage of the reference compound): 94%
Cav2.1; peptide at 0.2 μM
  Activity of Cav2.1 with peptide, expressed as a percentage of the reference compound: 104%
Cav2.1; peptide at 20 μM
  Activity of Cav2.1 with peptide (percentage of the reference compound): 96%
5HT3a
  Activity of 5HT3a with peptide (percentage of the reference compound): 104%
  Activity of 5HT3a with peptide, expressed as a percentage of the reference compound: 90%
α3β4; peptide at 0.2 μM
  Activity of a3b4 with peptide, expressed as a percentage of the reference compound: 97%
α3β4; peptide at 20 μM
  Activity of a3b4 with peptide (percentage of the reference compound): 104%
NR2B; peptide at 0.2 μM
  Activity of NR2B with peptide, expressed as a percentage of the reference compound: 82%
NR2B; peptide at 20 μM
  Activity of NR2B with peptide (percentage of the reference compound): 98%
Kv1.2; peptide at 0.2 μM
  Activity of Kv1.2 with peptide, expressed as a percentage of the reference compound: 135%
Kv1.2; peptide at 20 μM
  Activity of Kv1.2 with peptide (percentage of the reference compound): 77%
Kv1.3; peptide at 0.2 μM
  Activity of Kv1.3 with peptide, expressed as a percentage of the reference compound: 101%
Kv1.3; peptide at 20 μM
  Activity of Kv1.3 with peptide (percentage of the reference compound): 93%
Kv1.1; peptide at 0.2 μM
  Activity of Kv1.1 with peptide, expressed as a percentage of the reference compound: 117%
Kv1.1; peptide at 20 μM
  Activity of Kv1.1 with peptide (percentage of the reference compound): 84%
hERG; peptide at 0.2 μM
  Activity of hERG with peptide, expressed as a percentage of the reference compound: 97%
hERG; peptide at 20 μM
  Activity of hERG with peptide (percentage of the reference compound): 80%
Nav1.5; [3]
  Activity of Nav1.5 with peptide, expressed as a percentage of the reference compound: 93%
  Activity of Nav1.5 with peptide (percentage of the reference compound): 114%
Nav1.5; [4]
  Activity of Nav1.5 with peptide, expressed as a percentage of the reference compound: 90%
  Activity of Nav1.5 with peptide (percentage of the reference compound): 116%
TRPV1; peptide at 0.2 μM
  Activity of TRPV1 with peptide, expressed as a percentage of the reference compound: 111%
TRPV1; peptide at 20 μM
  Activity of TRPV1 with peptide (percentage of the reference compound): 98%
α4β2; peptide at 0.2 μM
  Activity of a4b2 with peptide, expressed as a percentage of the reference compound: 96%
α4β2; peptide at 20 μM
  Activity of a4b2 with peptide (percentage of the reference compound): 94%
GABA; peptide at 0.2 μM
  Activity of GABA with peptide, expressed as a percentage of the reference compound: 129%
GABA; peptide at 20 μM
  Activity of GABA with peptide (percentage of the reference compound): 111%
Kir2.1; peptide at 0.2 μM
  Activity of Kir2.1 with peptide, expressed as a percentage of the reference compound: 100%
Kir2.1; peptide at 20 μM
  Activity of Kir2.1 with peptide (percentage of the reference compound): 92%
NR2A; peptide at 0.2 μM
  Activity of NR2A with peptide, expressed as a percentage of the reference compound: 84%
NR2A; peptide at 20 μM
  Activity of NR2A with peptide (percentage of the reference compound): 65%
